The labels stand for the following.
B1: DVD501 DLL4 arm (antibody, V domains shown)
VH: EVQLQQSGPELVKPGASVKMSCKASGYTFTSYVINWVKQKPGQGLEWIGLINPYNDGTKYNEKFKVKATLTSDKSSSTAYMELSSLTSEDSAVYYCASYYYGSRYYFDYWGQGTTLTVSS
VL: DIQMTQSSSYLSVSLGGRVTITCKASDHINNWLAWYQQKPGNAPRLLISGATSLETGVPSRFSGSGSGKDYTLSITSLQTEDVATYYCQQYWSIPLTFGAGTKLELKR
modifications: DVD-Ig outer
B2: DVD502 DLL4 arm (antibody, V domains shown)
VH: EVQLQQSGPELVKPGASVKMSCKASGYTFTSYVINWVKQKPGQGLEWIGLINPYNDGTKYNEKFKVKATLTSDKSSSTAYMELSSLTSEDSAVYYCASYYYGSRYYFDYWGQGTTLTVSS
VL: DIQMTQSSSYLSVSLGGRVTITCKASDHINNWLAWYQQKPGNAPRLLISGATSLETGVPSRFSGSGSGKDYTLSITSLQTEDVATYYCQQYWSIPLTFGAGTKLELKR
modifications: DVD-Ig inner
B3: DVD492 DLL4 arm (antibody, V domains shown)
VH: EVQLQQSGPELVKPGASVKMSCKASGYTFTSYVINWVKQKPGQGLEWIGLINPYNDGTKYNEKFKVKATLTSDKSSSTAYMELSSLTSEDSAVYYCASYYYGSRYYFDYWGQGTTLTVSS
VL: DIQMTQSSSYLSVSLGGRVTITCKASDHINNWLAWYQQKPGNAPRLLISGATSLETGVPSRFSGSGSGKDYTLSITSLQTEDVATYYCQQYWSIPLTFGAGTKLELKR
modifications: DVD-Ig inner
B4: DVD516 DLL4 arm (antibody, V domains shown)
VH: EVQLQQSGPELEKPGASVKISCKASGYSFTGYNMNWVKQSNGKSLEWIGNIDPYFGGTNYNQKFKGKATLTVDKSSSTAYMQLKSLTSEDSAVYYCARNYDYDGGCFDYWGQGTTLTVSS
VL: QAVVTQESALTTSPGETVTLTCRSSTGAVTTSNYANWVQEKPDHLFTGLIGGTNNRAPGVPARFSGSLIGDKAALTITGAQTEDEAIYFCALWYSNHWVFGGGTKLTVLG
modifications: DVD-Ig inner
B5: DVD456 DLL4 arm (antibody, V domains shown)
VH: QVQLVQSGAEVKKPGASVKISCKASGYSFTAYYIHWVKQAPGQGLEWIGYISSYNGATNYNQKFKGRVTFTTDTSTSTAYMELRSLRSDDTAVYYCARDYDYDVGMDYWGQGTLVTVSS
VL: DIVMTQSPDSLAVSLGERATISCRASESVDNYGISFMKWFQQKPGQPPKLLIYAASNQGSGVPDRFSGSGSGTDFTLTISSLQAEDVAVYYCQQSKEVPWTFGGGTKVEIKR
modifications: DVD-Ig inner
B6: DVD450 DLL4 arm (antibody, V domains shown)
VH: QVQLVQSGAEVKKPGASVKISCKASGYSFTAYYIHWVKQAPGQGLEWIGYISSYNGATNYNQKFKGRVTFTTDTSTSTAYMELRSLRSDDTAVYYCARDYDYDVGMDYWGQGTLVTVSS
VL: DIVMTQSPDSLAVSLGERATISCRASESVDNYGISFMKWFQQKPGQPPKLLIYAASNQGSGVPDRFSGSGSGTDFTLTISSLQAEDVAVYYCQQSKEVPWTFGGGTKVEIKR
modifications: DVD-Ig inner
B7: DVD479 DLL4 arm (antibody)
chain 1: EVQLVESGGGLVQPGGSLRLSCAASGFTFTDNWISWVRQAPGKGLEWVGYISPNSGFTYYADSVKGRFTISADTSKNTAYLQMNSLRAEDTAVYYCARDNFGGYFDYWGQGTLVTVSS
chain 2: DIQMTQSPSSLSASVGDRVTITCRASQDVSTAVAWYQQKPGKAPKLLIYSASFLYSGVPSRFSGSGSGTDFTLTISSLQPEDFATTYYCQQSYTGTVTFGQGTKVEIKR
modifications: DVD-Ig outer
B8: DVD476 DLL4 arm (antibody)
chain 1: EVQLVESGGGLVQPGGSLRLSCAASGFTFTDNWISWVRQAPGKGLEWVGYISPNSGFTYYADSVKGRFTISADTSKNTAYLQMNSLRAEDTAVYYCARDNFGGYFDYWGQGTLVTVSS
chain 2: DIQMTQSPSSLSASVGDRVTITCRASQDVSTAVAWYQQKPGKAPKLLIYSASFLYSGVPSRFSGSGSGTDFTLTISSLQPEDFATTYYCQQSYTGTVTFGQGTKVEIKR
modifications: DVD-Ig inner

One may read the EC50 as the midpoint of the concentration-response curve.

For this experiment, the target named is DLL4 (human, UniProt Q9NR61). The experiment in a line: ELISA. A general note: An ELISA detects its analyte on a solid surface through an enzyme-linked reagent.
DLL4, sequence (Q9NR61 27-524): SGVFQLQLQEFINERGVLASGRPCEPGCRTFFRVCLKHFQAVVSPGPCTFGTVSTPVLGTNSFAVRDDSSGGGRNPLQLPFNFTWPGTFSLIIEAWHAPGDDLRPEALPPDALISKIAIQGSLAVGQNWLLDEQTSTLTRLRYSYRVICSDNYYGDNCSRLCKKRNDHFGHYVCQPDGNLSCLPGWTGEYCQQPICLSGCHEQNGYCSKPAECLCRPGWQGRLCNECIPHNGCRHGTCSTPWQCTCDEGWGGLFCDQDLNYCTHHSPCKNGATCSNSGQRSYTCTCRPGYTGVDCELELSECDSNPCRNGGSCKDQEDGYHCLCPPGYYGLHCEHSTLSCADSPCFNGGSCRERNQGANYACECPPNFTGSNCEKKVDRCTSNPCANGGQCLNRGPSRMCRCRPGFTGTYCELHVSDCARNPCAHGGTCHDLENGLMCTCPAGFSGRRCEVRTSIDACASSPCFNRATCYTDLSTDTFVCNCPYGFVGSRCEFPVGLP
Molecule B1 registered an EC50 of 0.18 nM.

Consider B2, for which it took 3.17 nM to reach a half-maximal effect (EC50).

As to B3, a half-maximal response (EC50) required 1.77 nM.

In turn, B4 registered an EC50 of 4.33 nM.

The molecule B5 displayed an EC50 of 2.48 nM.

B6 had an EC50 of 1.99 nM. The EC50 values of the last two molecules are within 1.5-fold of each other.

In turn, B7 showed an EC50 of 1.69 nM.

The molecule B8 gave an EC50 of 0.3 nM.

Values taken from patent US9029508 (dated 2015).
